PMC6218510, “Step Sizes and Rate Constants of Single-headed Cytoplasmic Dynein Measured with Optical Tweezers” (Scientific Reports, 2018)

Tests used:
[1] = tested on: T1, Nc1ncnc2c1ncn2[C@@H]1O[C@H](COP(=O)(O)OP(=O)(O)OP(=O)(O)O)[C@@H](O)[C@H]1O; assay: purified protein; format: biochemical, Homo sapiens; details: basal, no microtubules, 25 °C
T1 construct: motor domain with short tail Gly1288-Glu4646 (384 kDa), N-terminal FLAG tag and BCCP kept; Sf9 baculovirus; monomer

[2] = tested on: T1, Nc1ncnc2c1ncn2[C@@H]1O[C@H](COP(=O)(O)OP(=O)(O)OP(=O)(O)O)[C@@H](O)[C@H]1O; assay: optical tweezers, mean displacement of single-headed dynein against ATP; format: biochemical, Homo sapiens; details: with microtubules (paclitaxel), pH 7.2, 25 mM PIPES, 25 mM K-acetate, 2 mM MgCl2, 25 °C, half of power stroke size
[3] = biological target: microtubules (polymerized tubulin); assay: optical tweezers (single-trap assay) + other: in vitro motility assay; duty ratio calculated from the velocity of a single GST-D384 molecule at no load (387 nm/s) and the microtubule gliding velocity (481 nm/s) at 1 mM ATP
Chain of microtubules (polymerized tubulin) (chain, as listed by the source, chain 1 of 2): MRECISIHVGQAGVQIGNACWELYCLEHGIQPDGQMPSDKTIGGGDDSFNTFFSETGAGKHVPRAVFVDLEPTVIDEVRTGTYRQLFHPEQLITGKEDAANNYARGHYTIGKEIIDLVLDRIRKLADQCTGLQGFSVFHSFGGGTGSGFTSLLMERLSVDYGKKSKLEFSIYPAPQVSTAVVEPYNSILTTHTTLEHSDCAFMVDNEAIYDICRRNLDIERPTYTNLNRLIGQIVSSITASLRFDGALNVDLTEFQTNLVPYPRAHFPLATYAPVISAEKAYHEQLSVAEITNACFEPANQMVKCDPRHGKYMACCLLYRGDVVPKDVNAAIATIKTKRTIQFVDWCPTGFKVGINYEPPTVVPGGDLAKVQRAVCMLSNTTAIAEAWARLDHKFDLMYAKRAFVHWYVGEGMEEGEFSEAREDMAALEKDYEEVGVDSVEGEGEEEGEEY
Chain of microtubules (polymerized tubulin) (chain, as listed by the source, chain 2 of 2): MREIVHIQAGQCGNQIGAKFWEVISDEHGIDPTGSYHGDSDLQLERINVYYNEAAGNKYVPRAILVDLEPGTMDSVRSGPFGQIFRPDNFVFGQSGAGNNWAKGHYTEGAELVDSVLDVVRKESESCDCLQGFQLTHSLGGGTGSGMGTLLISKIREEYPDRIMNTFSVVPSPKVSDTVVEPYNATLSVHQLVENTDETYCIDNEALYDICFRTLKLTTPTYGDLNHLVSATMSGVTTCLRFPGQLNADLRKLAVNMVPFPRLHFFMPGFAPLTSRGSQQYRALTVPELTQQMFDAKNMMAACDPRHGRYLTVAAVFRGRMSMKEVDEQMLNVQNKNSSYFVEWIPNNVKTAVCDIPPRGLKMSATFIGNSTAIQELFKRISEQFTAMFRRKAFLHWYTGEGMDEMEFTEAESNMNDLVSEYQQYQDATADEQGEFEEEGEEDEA

[4] = biological target: microtubules (polymerized tubulin); assay: optical tweezers (single-trap assay); single GST-D384 molecules on a trapped bead, polarity-marked microtubules fixed on glass (amino-silane, glutaraldehyde), trap stiffness 16 fN/nm, 1 mM ATP; duty ratio calculated from the decay of peak force/displacement (run length), (1-rd)^2 = 0.26
[5] = biological target: microtubules (polymerized tubulin)

Substance: D384 (single-headed human cytoplasmic dynein-1 motor domain) (Homo sapiens)
- Km [1]: 31 ± 4 µM
- K0.5 [2]: 17.6 ± 0.5 µM

Substance: artificially dimerized dynein construct GST-D384, Q14204 1288-4646
- duty ratio rd (fraction of time that each head spends attached to a microtubule) [3]: 0.59
- duty ratio rd (fraction of time that each head spends attached to a microtubule) [4]: 0.49

Substance: human cytoplasmic dynein monomer construct D384, Q14204 1288-4646
- Km^MT: Michaelis-Menten constant for microtubules of the microtubule-stimulated ATPase of D384 (EnzChek phosphate assay, 35 nM dynein, 0-25 μM microtubules, 1 mM ATP, 25 °C) [5]: 50 µM
